Data published in paper PMC4118869 (PLoS ONE, 2014).

Target: recombinant H5-HA, A/Vietnam/1203/2004 (H5N1) (Influenza A virus A/Vietnam/1203/2004 …, UniProt Q5EP31, strain)
Assay: SPR
Conditions: both partners purified

Binder | Kd
R1a-B6 monovalent (VHH, source: E. coli WK6, periplasmic extract, purified (Talon IMAC, Superdex 75 SEC)) VHH: QVQLVESGGGLVQPGGSLRLSCAASGSFFSRYRMGWYRQAPGEQRELVASIAYDGSTSYADPVKGRFTISRDNANTVHLQMYSLKPDDTAVYYCNLDPPGILYWGQGTQVTVSS | 0.51 nM
R1a-A5 monovalent (VHH, source: E. coli WK6, periplasmic extract, purified (Talon IMAC, Superdex 75 SEC)) VHH: QVQLVESGGGLVQPGGSLRLSCSASGSAVLFSTYPMSWYRQAPGKQRELVAAVTTDGSTSYADYAKGRFTISRDNAKNTVYLQMNSLKPEDTAVYYCNARDGFFNRYDYWGQGTQVTVSS | 0.27 nM
